According to the Immune Epitope Database (IEDB):
pKd: −log10 of the molar value.

Assays:
Test in all cases: IEDB peptide-MHC binding, purified MHC/competitive/radioactivity; filed as Kd, often an IC50 or EC50 that approximates it; ≥ and ≤ were set here for values at or beyond the usual limits of such assays
[1] = biological target: HLA-A*11:01
[2] = biological target: HLA-A*33:01
[3] = biological target: HLA-A*03:01
[4] = biological target: HLA-A*31:01
[5] = biological target: HLA-A*68:01
[6] = source organism: Vaccinia virus WR
[7] = source organism: Dengue virus 4 Philippines/H241/1956
[8] = source organism: SARS coronavirus Tor2
[9] = source organism: Lymphocytic choriomeningitis virus (strain Armstrong)
[10] = source organism: Mammarenavirus tacaribeense
[11] = source organism: Dengue virus 2 Jamaica/1409/1983
[12] = source organism: Vaccinia virus Copenhagen
[13] = source organism: Mammarenavirus brazilense
[14] = source organism: Dengue virus 3 Martinique/1243/1999
[15] = source organism: Dengue virus 1 Brazil/97-11/1997
[16] = source organism: Dengue virus 4 Dominica/814669/1981
[17] = source organism: Dengue virus 4 Thailand/0348/1991

For LALTDVEKR, the pKd [1, 6] was 4.91, the pKd [2, 6] was no more than 4.13 and the pKd [3, 6] was no more than 4.11. For the same sequence, the pKd [4, 6] was 6.68 and the pKd [5, 6] was 6.79.
With TLITLILSNK the pKd [1, 6] was 8.47, the pKd [2, 6] was 5.07 and the pKd [3, 6] was 8.79. For the same sequence, the pKd [4, 6] was 6.24 and the pKd [5, 6] was 8.43.
With WSYYMATLK the pKd [1, 7] was 7.79, the pKd [3, 7] was 8.48 and the pKd [5, 7] was 8.74.
For PLIDIIRKR, the pKd [1, 6] was no more than 4.32, the pKd [2, 6] was 5.99 and the pKd [3, 6] was no more than 4.34. It also gave a pKd [4, 6] of 5.20 and a pKd [5, 6] of 6.01.
Work on VALSSLVSK yielded a pKd [1, 6] of 7.82, a pKd [2, 6] of no more than 4.40 and a pKd [3, 6] of 6.55. For the same sequence, the pKd [4, 6] was 5.69 and the pKd [5, 6] was 5.97.
SFIEDLLFNK gave a pKd [1, 8] of 6.45, a pKd [2, 8] of 6.41 and a pKd [3, 8] of 5.10. The pKd [4, 8] was 7.27 and the pKd [5, 8] was 6.14.
Work on DQDALFAYTK yielded a pKd [1, 8] of 5.59, a pKd [2, 8] of 5.02 and a pKd [3, 8] of 5.37. For the same sequence, the pKd [4, 8] was 5.43 and the pKd [5, 8] was 5.90.
With YQNKVVKVLR the pKd [2, 7] was 6.35.
Work on KSRRLNLFSK yielded a pKd [1, 6] of 5.96, a pKd [2, 6] of no more than 4.15 and a pKd [3, 6] of 6.19. For the same sequence, the pKd [4, 6] was 6.19 and the pKd [5, 6] was no more than 4.15.
Work on IVTMFEALPH yielded a pKd [2, 9] of 7.12, a pKd [4, 9] of no more than 4.15 and a pKd [5, 9] of 5.23.
For VCPLGLLLK, the pKd [1, 10] was 5.62, the pKd [2, 10] was no more than 4.11 and the pKd [3, 10] was 5.23. For the same sequence, the pKd [4, 10] was no more than 4.58 and the pKd [5, 10] was no more than 4.11.
Work on RQLFKPLTK yielded a pKd [1, 8] of 6.18, a pKd [2, 8] of no more than 4.11 and a pKd [3, 8] of 7.04. The pKd [4, 8] was 5.62 and the pKd [5, 8] was no more than 4.11.
LTTLSRTSKK gave a pKd [1, 11] of 5.73.
Work on KVASAGISYK yielded a pKd [1, 7] of 7.64 and a pKd [3, 7] of 8.50.
For RVIWMDAYK, the pKd [1, 12] was 9.10, the pKd [2, 12] was 5.32 and the pKd [3, 12] was 8.39. It also gave a pKd [4, 12] of 8.98 and a pKd [5, 12] of 9.08.
For EFGRAKGSR, the pKd [2, 7] was 7.42.
ELRRAAIDR gave a pKd [1, 6] of no more than 4.11, a pKd [2, 6] of 5.96 and a pKd [3, 6] of no more than 4.11. For the same sequence, the pKd [4, 6] was 4.74 and the pKd [5, 6] was 7.08.
In the case of NAISSRVDR, the pKd [1, 6] was no more than 4.43, the pKd [2, 6] was 7.02 and the pKd [3, 6] was no more than 4.11. For the same sequence, the pKd [4, 6] was 5.89 and the pKd [5, 6] was 7.83.
ESRPFDLIK showed a pKd [1, 6] of 5.88, a pKd [2, 6] of 5.47 and a pKd [3, 6] of 5.08. For the same sequence, the pKd [4, 6] was 4.75 and the pKd [5, 6] was 7.66.
Work on EQLSKYVEK yielded a pKd [1, 6] of 8.01, a pKd [2, 6] of 6.08 and a pKd [3, 6] of 6.83. The pKd [4, 6] was 6.30 and the pKd [5, 6] was 6.79.
KSKQDRSDGY was tested, and the pKd [1, 6] was no more than 4.16, the pKd [2, 6] was no more than 4.15 and the pKd [3, 6] was no more than 4.45. The pKd [4, 6] was no more than 4.15 and the pKd [5, 6] was no more than 4.15.
Sequence VSVSDFRDY has a pKd [1, 6] of 4.98, a pKd [2, 6] of 4.92 and a pKd [3, 6] of no more than 4.11. The pKd [4, 6] was no more than 4.11 and the pKd [5, 6] was no more than 4.11.
For CSSLTEEFYH, the pKd [1, 13] was 5.06, the pKd [4, 13] was 5.47 and the pKd [5, 13] was no more than 4.50.
SIMKSVGTGK was tested, and the pKd [1, 14] was 7.69 and the pKd [3, 14] was 8.08.
Work on VLARWGTFKK yielded a pKd [3, 14] of 7.74.
With TVASAAQRR the pKd [5, 15] was 7.47.
In the case of TFAAGLLLR, the pKd [2, 11] was 7.17.
Work on YVCKHTYVDR yielded a pKd [4, 14] of 6.88 and a pKd [5, 14] of 6.05.
In the case of TMRCIGISNR, the pKd [2, 11] was 7.85 and the pKd [4, 11] was 8.44.
In the case of ALNDTWKMEK, the pKd [1, 11] was 6.41 and the pKd [3, 11] was 7.08.
IVTCAMFTCK was tested, and the pKd [1, 11] was 6.45 and the pKd [3, 11] was 6.44.
Work on ILKRWGQLKK yielded a pKd [3, 7] of 7.41.
With SALTLHWFR the pKd [2, 7] was 8.43, the pKd [4, 7] was 9.61 and the pKd [5, 7] was 8.63.
For TTNIWLKLR, the pKd [2, 11] was 8.14 and the pKd [4, 11] was 8.58.
Sequence ATCVYNMMGK has a pKd [1, 15] of 7.70 and a pKd [3, 15] of 8.72.
VTAASAAQRR showed a pKd [5, 14] of 7.37.
Work on MTLMKGASRR yielded a pKd [2, 16] of 7.16, a pKd [4, 16] of 7.09 and a pKd [5, 16] of 7.40.
For GAMLFLISGK, the pKd [1, 14] was 7.37 and the pKd [3, 14] was 8.41.
For RLPTFMTQK, the pKd [3, 11] was 8.63.
With YVSAIAQAK the pKd [5, 15] was 7.44.
In the case of HMIVSKQER, the pKd [2, 15] was 5.06 and the pKd [4, 15] was no more than 4.11.
With NMLKRERNR the pKd [2, 11] was 7.10.
In the case of TIEEGRTLR, the pKd [2, 15] was 6.42.
FFTASLFLH showed a pKd ([1]; source organism: Mammarenavirus juninense) of 6.61.
ELTLDCEPR showed a pKd [2, 7] of 7.49 and a pKd [5, 7] of 6.64.
Work on TVMAFHLSTR yielded a pKd [1, 17] of 7.16, a pKd [2, 17] of 7.67 and a pKd [4, 17] of 8.23. For the same sequence, the pKd [5, 17] was 8.35.
Sequence RMLNILNRR has a pKd [4, 11] of 8.62.
DTTPFGQQR showed a pKd [2, 7] of 7.02 and a pKd [5, 7] of 7.04.
RINGIPQQH showed a pKd ([3]; source organism: Homo sapiens) of 6.96.
In the case of GTSIFAGHLK, the pKd [1, 14] was 7.63, the pKd [3, 14] was 8.41 and the pKd [5, 14] was 6.94.
Sequence PTFAAGLLLR has a pKd [5, 11] of 6.08.
